Results taken from the supplement of paper PMC9170038.

Key:
MS2 coat protein [1] = experiment: apparent KD of MS2 coat protein, switch ON state; designed switch direction (-1 OFF switch, 1 ON switch): -1; higher = weaker reporter binding; conditions: FMN input: 0 or 200 uM; Eterna round: R93 (includes R88 designs)
How it was run: (§1)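 The designed RNA switches were transcribed on-chip from Illumina sequencing clusters. In 100 mM Tris-HCl pH 7.5, 80 mM KCl and 4 mM MgCl2, without or with constant ligand, they were titrated with SNAP-549-labelled MS2 coat protein from 0.7 or 1.5 nM to 3 µM in twofold steps. Apparent KD is the per-design median of normalised cluster binding-curve fits.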

MS2 coat protein [2] = experiment: apparent KD of MS2 coat protein, switch OFF state (with FMN for OFF switches, without FMN for ON switches); designed switch direction (-1 OFF switch, 1 ON switch): -1; higher = weaker reporter binding; conditions: FMN input: 0 or 200 uM; Eterna round: R93 (includes R88 designs)
How it was run: as §1

MS2 coat protein [3] = experiment: apparent KD of MS2 coat protein; higher = weaker reporter binding; conditions: Eterna round: R107
How it was run: as §1

[4] = input ligand: theophylline 20 uM
[5] = input ligand: tryptophan 2.4 mM
[6] = input ligand: theophylline 2 mM

| Sequence | apparent KD of MS2 coat protein (MS2 coat protein [1]) | apparent KD of MS2 coat protein (MS2 coat protein [2]) | also measured |
| --- | --- | --- | --- |
| AAGAAGGAAGGAUAUACAUGAGGAUCACCCAUGUAAAAGAAAGAGGGAAAAGAGAAAAGUAGAAGGUCCAAGAA [Ptolemy V Epiphanes] | 26.5 nM | 30.3 nM | – |
| AAAAAACAUGAGGAUCACCCAUGUGAGGAUAUGCGAAAAAAAAAAUAAAAAAAAAAAAGCAGAAGGCACAAAAA [LROPPY Exclusion 1 - v05_deltaG=1.64] | 37.6 nM | 58.5 nM | – |
| AAAAAGUGAGGAUAUGCAGUGUCCUGUAGACGCGAGCACUUGUAGAAGGCACAUGAGGAUCACCCAUGUUUAAA [EX4 Malc#28] | 24 nM | 22.1 nM | – |
| AGGAAACAUGAGGAUCACCCAUGUAAGGAUAUGAACGAAAUAAAAUAAAAAUAAAAGUUCAGAAGGUACAAAAA [Mat - Exclusion 1 - Eli mod - D8] | 31.8 nM | 39.3 nM | – |
| AUCUUGUCAGGAUAUGACUACAUAAAAAAAAAAAAAUGUAGUCAGAAGGGACAUGAGGAUCACCCAUGUACCAA [HSL_Exclusion 4 64% 2] | 29.1 nM | 24.1 nM | – |
| AACAAACAUGAGGAUCACCCAUGUAAGGAUAUGCGACAAAAACAAAAAACAAAAAAAAGCAGAAGGUACAACAA [Amethyst 100] | 23.4 nM | 30.4 nM | – |
| AAAAAACAUGAGGAUCACCCAUGUGAGGAUAUGUGAAAAAAAAAAUAAAAAAAAAAAAGCAGAAGGUACAAAAA [LROPPY Exclusion 1 - v03_deltaG=3.94] | 43.7 nM | 39.9 nM | – |
| AAAAAACAUGAGGAUCACCCAUGUGAGGAUAUAGGAAAAAAAAAAAAAAAAAAAAAAACUAGAAGGCACAAAAA [Gess I got it^^] | 35.2 nM | 41.7 nM | – |
| AACAAAUGAGGAUAUACAAACAAAAAAAACAAACAAAACAAACAUGAGGAUCACCCAUGUAGAAGGCAUAAACA [JR_Exc002_Sub901] | 24.8 nM | 24.5 nM | – |
| AAGAAGGAAGGAUAUACAUGAAAGAAAGAAAAGAAAAGAAAACAUGAGGAUCACCCAUGUAGAAGGUCCUAGAA [EteRNA is fun!] | 39.6 nM | 80.5 nM | – |
| GGAACACAUGAGGAUCACCCAUGUCAGGAUAUGUAGAUAAAAAGAAAAUAAAAUAAAAGCAGAAGGGACAAAAG [May 4] | 60.2 nM | 44.5 nM | – |
| AAGAAACAUGAGGAUCACCCAUGUGAGGAUAUCGAAAAGAAAAGAAAAGAAAGAAGAAUGAGAAGGCACAAAGG [Shed—] | 30.9 nM | 29.8 nM | – |
| AGCAAGUCAGGAUAUACGAACAAGACAAAAGACGUGAAGGGACAUGAGGAUCACCCAUGUAGAAGGGACAAGCA [74%, Web mod - With 4 less U's] | 79.1 nM | 55.8 nM | – |
| AAAAAACAUGAGGAUCACCCAUGUGAGGAUAUCAAAUAAAGGCACAUGAGAAGGCAUAUGAGAAGGCACAUGAA [Meechl MS2 Ex1 2] | 41.4 nM | – | – |
| AAAUGACAUGAGGAUCACCCAUGUCAGGAUAUGACUUGAAAAAAAAAAAAAAAACAUGUCAGAAGGGACAUGAA [Design 48: Sub-opt E] | 17.2 nM | 16.8 nM | – |
| AAGAAUGCAGGAUAUACAUGAGGAUCACCCAUGUAAAAGAAAGAAAGGGAAAAGAAAAGUAGAAGGGCAAAGAA [Usermaatre-setepenamun Osorkon II] | 35.8 nM | 36.5 nM | – |
| CCGAGACAUGAGGAUCACCCAUGUGAGGAUAUAGGUGUAUGCUAAAAAAAGUUAACAACUAGAAGGCACAGAGG [JR_Exc001_Sub308] | 55.7 nM | 129 nM | – |
| CAGUACUGAGGAUAUACAUGAGGAUCACCCAUGUGGUCCAGCUAGGAAACUAGCACGUGUAGAAGGCAGUACUG [Ex3: 840] | 29.5 nM | 20 nM | – |
| AAGGAUCGAGGAUAUACAUAGAUACAGAUACAUGUAGACGUACAUGAGGAUCACCCAUGUAGAAGGCGAUCAUA [AJ 27] | 150 nM | 255 nM | – |
| CUCAUGUCAGGAUAUAGCCACAUGAGGAUCACCCAUGUGGACUAGAAGGGACAUGAGGAUCACCCAUGUAUGAA | 11 nM | 11.3 nM | – |
| AAAGGACGAGGAUAUACAUGAGGAUCACCCAUGUAAAAAGCAUAAUAAAAGAACUUAUGUAGAAGGCGUCCAAA [69%, Moding Meechl, 5] | 41 nM | 189 nM | – |

| Sequence | apparent KD of MS2 coat protein (MS2 coat protein [1]) | apparent KD of MS2 coat protein (MS2 coat protein [2]) | also measured |
| --- | --- | --- | --- |
| AGGAAACAUGAGGAUCACCCAUGUGAGGAUAUGAGAAAGAAAAGAAAAGAAAGAAGAAUCAGAAGGCACAAGAA [Raneb] | 42.8 nM | 46.6 nM | – |
| AAAAAACAUGAGGAUCACCCAUGUCAGGAUAUACAAAAAUAAAUAAAAAUAAAAUAAAGUAGAAGGGACAAAAA [May 9] | 28.9 nM | 36.9 nM | – |
| AAAAAGGGAGGAUAUACAUGAGGAUCACCCAUGUGAAAGACGAAAAAGAGUCUAAAGGGUAGAAGGCCCAAAAA [65%, Moding Exclusion3-cac2, 10] | 51.1 nM | 49.2 nM | – |
| AACAGGAGAGGAUAUACAUGAGGAUCACCCAUGUAGGAAACAAGCAGAGUACCAAAAAGUAGAAGGCUCAUGGA [Ruby 32] | 28.1 nM | 43.1 nM | – |
| AAGACUACAGGAUAUACAUGAGGAUCACCCAUGUAACUGACGGAUAGAUGACGGAGAAGUAGAAGGGUAGUCAA [Ruby 38] | 16.9 nM | 26.4 nM | – |
| UUGGGACAUGAGGAUCACCCAUGUAAGGAUAUUGGCGCGCCGGCUCUGUCUGUUCCGCCGAGAAGGUACACGUU [Exclusion I] | 45.5 nM | 102 nM | – |
| CUCUAGUCAGGAUAUCCAAGAAAAGAAGAGAAAGAAAAGAAGGAGAAGGGACAUGAGGAUCACCCAUGUAAGAA [EteRNA is fun!] | 75.9 nM | 46.4 nM | – |
| ACCAAUGGAGGAUAUACAUGAGGAUCACCCAUGUAUAACCUACAUAGGUGAAAAAAAUGUAGAAGGCCAUUGGA [EX3 233: Super Stable 33] | 31.2 nM | 16.9 nM | – |
| CUCAAGUGAGGAUAUCAGUAGUAAAAAAAUAAAAUUACUACUGAGAAGGCACAUGAGGAUCACCCAUGUUCCAA [EX4 342: Super Stable 42] | 124 nM | 181 nM | – |
| AAGAACUGAGGAUAUACAUGAGGAUCACCCAUGUAAAAGAAAGAAAGGGAAAAGAAAAGUAGAAGGCAGAAGAA [Menmaatre-setpenptah Ramesses XI] | 51.1 nM | 59.4 nM | – |
| AGCUAGUCAGGAUAUACGAACAAGACAAAAGACGUGAAGGGACAUGAGGAUCACCCAUGUAGAAGGGACUAGCA [74%, Web mod - With 2 less U's] | 26.2 nM | 71.3 nM | – |
| AAAAAGCGAGGAUAUACAUGAGGAUCACCCAUGUAAAAGGUCGCGGGAGGGAGGGAAGGUAGAAGGCGCAAAAA [Excls3-VI] | 15.4 nM | 14.1 nM | – |
| AAAAAACAUGAGGAUCACCCAUGUAAGGAUAUGCGAUGGAAAAUAAAAAUAAAACAUAGCAGAAGGUACACCAA [Amethyst 82] | 29.4 nM | 28.2 nM | – |
| AUAGUCUUGAGUGAUACCAGACUACAUGAGGAUCACCCAUGUUUCUUUUGGUUAUCAUGUGUCCCUUGGCAGCACGCAUGUAUAG [JR_ExcTheophyB_Sub014] | – | – | apparent KD of MS2 coat protein (MS2 coat protein [3]; input ligand: arginine 13.2 mM): 17.5 nM; apparent KD of MS2 coat protein (MS2 coat protein [3]; [4]): 28 nM; apparent KD of MS2 coat protein (MS2 coat protein [3]; [5]): 12.6 nM |
| AUUCAUGGAAACAUGACAUACAUAUCCGGUCGAGGACCGGUACGGCCGCCACUCGUUUGGAGGCACAUGAGGAUCACCCAUGUUA [SS Tryp A #8] | – | – | apparent KD of MS2 coat protein (MS2 coat protein [3]; input ligand: arginine 13.2 mM): 21.3 nM; apparent KD of MS2 coat protein (MS2 coat protein [3]; [4]): 34.4 nM; apparent KD of MS2 coat protein (MS2 coat protein [3]; [6]): 25.9 nM |
| UGUUAUUUCCGAAGGAGCGGGAUACAUGAGGAUCACCCAUGUACAUGAGGAUCAACAUGAACCCAGGUAGGUCGCGGAUUUUGUC [Exclusion Arginine B 3] | – | – | apparent KD of MS2 coat protein (MS2 coat protein [3]; input ligand: arginine 13.2 mM): 34.1 nM; apparent KD of MS2 coat protein (MS2 coat protein [3]; input ligand: none): 405 nM; apparent KD of MS2 coat protein (MS2 coat protein [3]; [4]): 300 nM; apparent KD of MS2 coat protein (MS2 coat protein [3]; [6]): 379 nM; apparent KD of MS2 coat protein (MS2 coat protein [3]; [5]): 228 nM |
| AUAACCCUUGACUAAAACACUAAAUCAGUUCGAGGACCGGUACGGCCGCCACUCGUGUCAAGACAUGAGGAUCACCCAUGUACCU [Isbe] | – | – | apparent KD of MS2 coat protein (MS2 coat protein [3]; input ligand: arginine 13.2 mM): 32 nM; apparent KD of MS2 coat protein (MS2 coat protein [3]; [4]): 45.4 nM; apparent KD of MS2 coat protein (MS2 coat protein [3]; [6]): 44.3 nM |
| AGACUGUAAAGUCUACCGGUCAACAAUAAUCGAGGACCGGUACGGCCGCCACUCGAUGUGAUAUACACAUGAGGAUCACCCAUGU [Tryptophan A 16] | – | – | apparent KD of MS2 coat protein (MS2 coat protein [3]; input ligand: arginine 13.2 mM): 17.2 nM; apparent KD of MS2 coat protein (MS2 coat protein [3]; [4]): 22.6 nM; apparent KD of MS2 coat protein (MS2 coat protein [3]; [6]): 19.7 nM |
| AUACAUGAGGAUCACCCAUGUCUUACGGAAGGAGCGAUCAAGAGAUCAGGUAGGUCGCCGUACAUGAGGAUCACCCAUGUAGGCG [EAA NP+V+V2 #9 DOUBLE] | – | – | apparent KD of MS2 coat protein (MS2 coat protein [3]; input ligand: arginine 13.2 mM): 19.5 nM; apparent KD of MS2 coat protein (MS2 coat protein [3]; input ligand: none): 32.3 nM; apparent KD of MS2 coat protein (MS2 coat protein [3]; [4]): 33.4 nM; apparent KD of MS2 coat protein (MS2 coat protein [3]; [6]): 35.7 nM; apparent KD of MS2 coat protein (MS2 coat protein [3]; [5]): 31.3 nM |
| AAACGCCACGGAAGGAGCGACAUGAGGAUCACCCAUGUAGAUUUGGCGGAUGCACCCUCCUGUCAGGUAGGUCGCCGUGCGAUAA [XArg-B25] | – | – | apparent KD of MS2 coat protein (MS2 coat protein [3]; input ligand: arginine 13.2 mM): 33.9 nM; apparent KD of MS2 coat protein (MS2 coat protein [3]; input ligand: none): 60.8 nM; apparent KD of MS2 coat protein (MS2 coat protein [3]; [4]): 109 nM; apparent KD of MS2 coat protein (MS2 coat protein [3]; [6]): 89 nM; apparent KD of MS2 coat protein (MS2 coat protein [3]; [5]): 86.6 nM |
| GACCACAUGAGGAUCACCCAUGUCUUGGUCCGAGGACCGGUACGGCCGCCACUCGAGAGCCGUACAAAUAAACGGAGUGCCAUCA [theeternabot_sameState_MS2_Trp_A_31] | – | – | apparent KD of MS2 coat protein (MS2 coat protein [3]; input ligand: arginine 13.2 mM): 12.5 nM; apparent KD of MS2 coat protein (MS2 coat protein [3]; [4]): 19.6 nM; apparent KD of MS2 coat protein (MS2 coat protein [3]; [6]): 15.5 nM |
